Patent US20260250318A1, “COMPOSITIONS AND METHODS FOR CROSSING THE BLOOD BRAIN BARRIER” (VOYAGER THERAPEUTICS, INC., priority 2022, published 2026)

T1: ALPL (Homo sapiens, UniProt P05186)
T1 sequence (P05186 18-501): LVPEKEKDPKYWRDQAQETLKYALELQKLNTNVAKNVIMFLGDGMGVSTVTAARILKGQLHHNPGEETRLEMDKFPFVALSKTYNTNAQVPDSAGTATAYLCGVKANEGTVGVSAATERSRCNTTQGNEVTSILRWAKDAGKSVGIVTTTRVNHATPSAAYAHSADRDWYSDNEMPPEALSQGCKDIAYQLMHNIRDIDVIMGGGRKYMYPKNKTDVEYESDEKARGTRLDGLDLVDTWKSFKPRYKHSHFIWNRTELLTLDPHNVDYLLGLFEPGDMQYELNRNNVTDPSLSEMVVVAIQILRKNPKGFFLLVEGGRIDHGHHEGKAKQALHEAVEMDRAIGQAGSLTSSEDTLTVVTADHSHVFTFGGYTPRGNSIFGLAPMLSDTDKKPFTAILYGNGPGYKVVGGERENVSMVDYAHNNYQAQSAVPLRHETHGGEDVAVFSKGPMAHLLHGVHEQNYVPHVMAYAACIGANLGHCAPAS

T2: human ALPL expressed on cells (alkaline phosphatase tissue-nonspecific isozyme, NM_000478.4) (human, UniProt P05186 18-501)
T2 construct: also called ALPL receptor; human ALPL protein (NM_000478.6)
T2 sequence: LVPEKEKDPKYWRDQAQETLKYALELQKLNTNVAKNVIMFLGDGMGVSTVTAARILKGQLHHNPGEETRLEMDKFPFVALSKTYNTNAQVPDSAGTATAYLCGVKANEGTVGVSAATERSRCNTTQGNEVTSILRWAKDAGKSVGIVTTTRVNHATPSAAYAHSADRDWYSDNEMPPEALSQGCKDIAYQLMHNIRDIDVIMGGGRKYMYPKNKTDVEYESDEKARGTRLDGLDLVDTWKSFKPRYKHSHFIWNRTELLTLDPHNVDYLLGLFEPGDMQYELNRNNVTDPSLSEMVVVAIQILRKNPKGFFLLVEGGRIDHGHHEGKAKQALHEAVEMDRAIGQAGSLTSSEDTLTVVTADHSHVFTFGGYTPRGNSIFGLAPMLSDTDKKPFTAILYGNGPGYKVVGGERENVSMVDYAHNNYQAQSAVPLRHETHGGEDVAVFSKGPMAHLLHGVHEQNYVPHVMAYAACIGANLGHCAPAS

T3: ALPL with a deletion of the ER localization signal (ALPL transcript variant 2, NM_001127501) (human, UniProt P05186 56-501)
T3 sequence: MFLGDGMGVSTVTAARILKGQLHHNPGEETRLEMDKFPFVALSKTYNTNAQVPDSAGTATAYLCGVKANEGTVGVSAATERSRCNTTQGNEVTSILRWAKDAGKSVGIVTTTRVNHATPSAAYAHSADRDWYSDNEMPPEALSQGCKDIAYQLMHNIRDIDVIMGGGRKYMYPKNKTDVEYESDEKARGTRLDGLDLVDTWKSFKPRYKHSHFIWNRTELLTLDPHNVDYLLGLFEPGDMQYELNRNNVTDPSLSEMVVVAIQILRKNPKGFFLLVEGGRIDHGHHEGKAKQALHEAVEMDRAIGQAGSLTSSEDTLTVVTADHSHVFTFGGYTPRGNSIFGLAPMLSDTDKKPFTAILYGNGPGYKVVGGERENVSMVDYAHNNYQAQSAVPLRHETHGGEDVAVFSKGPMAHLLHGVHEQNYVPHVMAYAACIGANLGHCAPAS

T4: AAVR (universal AAV entry factor) expressed on HEK 293T cells (UniProt Q8IZA0 1-1049)
T4 construct: whole, on cells; also called AAVR positive control
T4 sequence: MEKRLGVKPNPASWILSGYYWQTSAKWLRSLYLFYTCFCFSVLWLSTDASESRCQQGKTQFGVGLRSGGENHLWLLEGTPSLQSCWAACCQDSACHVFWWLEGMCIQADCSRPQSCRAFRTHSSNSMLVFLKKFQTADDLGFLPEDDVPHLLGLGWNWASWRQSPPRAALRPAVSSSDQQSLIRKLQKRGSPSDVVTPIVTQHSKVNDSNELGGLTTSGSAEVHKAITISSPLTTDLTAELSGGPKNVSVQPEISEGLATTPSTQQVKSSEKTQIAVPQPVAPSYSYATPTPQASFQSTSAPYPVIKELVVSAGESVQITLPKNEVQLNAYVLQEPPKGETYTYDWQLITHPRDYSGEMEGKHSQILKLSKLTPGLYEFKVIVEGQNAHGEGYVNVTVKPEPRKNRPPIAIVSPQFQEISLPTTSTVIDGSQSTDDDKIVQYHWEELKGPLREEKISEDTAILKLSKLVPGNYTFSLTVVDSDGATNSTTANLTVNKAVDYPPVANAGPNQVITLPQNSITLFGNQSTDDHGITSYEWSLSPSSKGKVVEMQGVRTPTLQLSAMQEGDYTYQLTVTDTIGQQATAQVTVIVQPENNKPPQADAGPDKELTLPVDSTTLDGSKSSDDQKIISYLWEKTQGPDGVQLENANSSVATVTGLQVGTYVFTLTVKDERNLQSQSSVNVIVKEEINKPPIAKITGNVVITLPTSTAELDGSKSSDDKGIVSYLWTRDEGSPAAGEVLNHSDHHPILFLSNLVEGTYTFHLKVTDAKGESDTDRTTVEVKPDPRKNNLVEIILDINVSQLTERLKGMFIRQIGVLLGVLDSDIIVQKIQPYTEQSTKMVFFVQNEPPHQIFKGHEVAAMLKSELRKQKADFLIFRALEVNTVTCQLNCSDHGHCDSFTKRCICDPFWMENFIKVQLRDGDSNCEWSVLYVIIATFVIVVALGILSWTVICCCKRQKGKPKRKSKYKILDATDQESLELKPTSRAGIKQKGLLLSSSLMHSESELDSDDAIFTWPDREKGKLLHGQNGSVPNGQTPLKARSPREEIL

T5: murine ALPL ortholog expressed on HEK 293T cells (NM_001287172.1) (mouse, UniProt P09242 18-501)
T5 sequence: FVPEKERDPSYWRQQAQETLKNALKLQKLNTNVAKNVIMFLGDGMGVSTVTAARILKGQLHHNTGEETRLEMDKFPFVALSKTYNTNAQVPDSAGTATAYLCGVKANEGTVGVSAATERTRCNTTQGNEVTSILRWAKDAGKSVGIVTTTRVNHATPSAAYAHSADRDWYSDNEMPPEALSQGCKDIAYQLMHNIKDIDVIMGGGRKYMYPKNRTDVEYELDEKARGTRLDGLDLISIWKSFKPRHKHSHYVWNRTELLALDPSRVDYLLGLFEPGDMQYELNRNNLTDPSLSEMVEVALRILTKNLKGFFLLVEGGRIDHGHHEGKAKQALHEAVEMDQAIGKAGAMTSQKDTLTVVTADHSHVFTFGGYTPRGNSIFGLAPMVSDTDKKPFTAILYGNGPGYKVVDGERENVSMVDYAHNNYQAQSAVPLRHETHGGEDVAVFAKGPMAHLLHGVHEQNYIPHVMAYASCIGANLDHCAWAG

B1: TTM-001 capsid variant (AAV particle comprising the TTM-001 AAV9 capsid variant) (other)
chain 1: MAADGYLPDWLEDNLSEGIREWWALKPGAPQPKANQQHQDNARGLVLPGYKYLGPGNGLDKGEPVNAADAAALEHDKAYDQQLKAGDNPYLKYNHADAEFQERLKEDTSFGGNLGRAVFQAKKRLLEPLGLVEEAAKTAPGKKRPVEQSPQEPDSSAGIGKSGAQPAKKRLNFGQTGDTESVPDPQPIGEPPAAPSGVGSLTMASGGGAPVADNNEGADGVGSSSGNWHCDSQWLGDRVITTSTRTWALPTYNNHLYKQISNSTSGGSSNDNAYFGYSTPWGYFDFNRFHCHFSPRDWQRLINNNWGFRPKRLNFKLFNIQVKEVTDNNGVKTIANNLTSTVQVFTDSDYQLPYVLGSAHEGCLPPFPADVFMIPQYGYLTLNDGSQAVGRSSFYCLEYFPSQMLRTGNNFQFSYEFENVPFHSSYAHSQSLDRLMNPLIDQYLYYLSKTINGSGSPHSKAQNQQTLKFSVAGPSNMAVQGRNYIPGPSYRQQRVSTTVTQNNNSEFAWPGASSWALNGRNSLMNPGPAMASHKEGEDRFFPLSGSLIFGKQGTGRDNVDADKVMITNEEEIKTTNPVATESYGQVATNHQSAQAQAQTGWVQNQGILPGMVWQDRDVYLQGPIWAKIPHTDGNFHPSPLMGGFGMKHPPPQILIKNTPVPADPPTAFNKDKLNSFITQYSTGQVSVEIEWELQKENSKRWNPEIQYTSNYYKSNNVEFAVNTEGVYSEPRPIGTRYLTRNL
chain 2: TAPGKKRPVEQSPQEPDSSAGIGKSGAQPAKKRLNFGQTGDTESVPDPQPIGEPPAAPSGVGSLTMASGGGAPVADNNEGADGVGSSSGNWHCDSQWLGDRVITTSTRTWALPTYNNHLYKQISNSTSGGSSNDNAYFGYSTPWGYFDFNRFHCHFSPRDWQRLINNNWGFRPKRLNFKLFNIQVKEVTDNNGVKTIANNLTSTVQVFTDSDYQLPYVLGSAHEGCLPPFPADVFMIPQYGYLTLNDGSQAVGRSSFYCLEYFPSQMLRTGNNFQFSYEFENVPFHSSYAHSQSLDRLMNPLIDQYLYYLSKTINGSGSPHSKAQNQQTLKFSVAGPSNMAVQGRNYIPGPSYRQQRVSTTVTQNNNSEFAWPGASSWALNGRNSLMNPGPAMASHKEGEDRFFPLSGSLIFGKQGTGRDNVDADKVMITNEEEIKTTNPVATESYGQVATNHQSAQAQAQTGWVQNQGILPGMVWQDRDVYLQGPIWAKIPHTDGNFHPSPLMGGFGMKHPPPQILIKNTPVPADPPTAFNKDKLNSFITQYSTGQVSVEIEWELQKENSKRWNPEIQYTSNYYKSNNVEFAVNTEGVYSEPRPIGTRYLTRNL
chain 3: MASGGGAPVADNNEGADGVGSSSGNWHCDSQWLGDRVITTSTRTWALPTYNNHLYKQISNSTSGGSSNDNAYFGYSTPWGYFDFNRFHCHFSPRDWQRLINNNWGFRPKRLNFKLFNIQVKEVTDNNGVKTIANNLTSTVQVFTDSDYQLPYVLGSAHEGCLPPFPADVFMIPQYGYLTLNDGSQAVGRSSFYCLEYFPSQMLRTGNNFQFSYEFENVPFHSSYAHSQSLDRLMNPLIDQYLYYLSKTINGSGSPHSKAQNQQTLKFSVAGPSNMAVQGRNYIPGPSYRQQRVSTTVTQNNNSEFAWPGASSWALNGRNSLMNPGPAMASHKEGEDRFFPLSGSLIFGKQGTGRDNVDADKVMITNEEEIKTTNPVATESYGQVATNHQSAQAQAQTGWVQNQGILPGMVWQDRDVYLQGPIWAKIPHTDGNFHPSPLMGGFGMKHPPPQILIKNTPVPADPPTAFNKDKLNSFITQYSTGQVSVEIEWELQKENSKRWNPEIQYTSNYYKSNNVEFAVNTEGVYSEPRPIGTRYLTRNL

Assays:
ALPL = molecular target: T1, ALPL; assay: Inhibition of TTM-002 transduction by small molecule ALPL inhibitors in HeLa cells expressing ALPL; assay type: cell-based; set-up: endogenous in cells; host or cells: HeLa
Description: An inhibitor of ALPL was also investigated to determine if blocking the ALPL receptor would reduce cellular transduction of the TTM-002 capsid variant. […] The inhibitor or a vehicle control (equivalent amount of DMSO) was added to HeLa cells expressing ALPL 1 hour prior to transduction with an AAV viral particle comprising the TTM-002 capsid variant or an AAV9 control capsid and expressing a GFP-luciferase transgene under the control of a CAG promoter. The cells were then transduced with 1E4 VG/cell of an AAV particle comprising the TTM-002 capsid variant or an AAV9 control capsid. Media and virus were removed 4 hours post transduction and luciferase activity was measured (RLU) 24 hours post transduction.

[1] = molecular target: T2, human ALPL expressed on cells (alkaline …); assay: binding/internalization: AAV incubated 2 or 3 h with ALPL transfected HEK 293T cells, washed, viral genomes quantified
[2] = molecular target: T3, ALPL with a deletion of the ER …; assay: cell-based or functional assay
[3] = molecular target: T2, human ALPL expressed on cells (alkaline …); assay: cell-based or functional assay
[4] = molecular target: T2, human ALPL expressed on cells (alkaline …); assay: cell-based or functional assay; remark: listed apart in the source
[5] = molecular target: T4, AAVR (universal AAV entry factor) …; assay: binding/internalization: AAV incubated 2 or 3 h with AAVR transfected HEK 293T cells, washed, viral genomes quantified
[6] = molecular target: T5, murine ALPL ortholog expressed on HEK …; assay: cell-based or functional assay
[7] = molecular target: T2, human ALPL expressed on cells (alkaline …); assay: cell-based or functional assay; remark: listed apart in the source

| Molecule | IC50 (ALPL) [nM] | effect on TTM-002 transduction (ALPL) | fold change in viral gene expression (2^-ΔΔCT) relative to pCMV6 transfected cells [1] [fold] | fold change in luciferase activity relative to the pCMV6 control cells (cells transfected with ALPL comprising a deletion of the ER localization signal) [2] [fold] | fold change in luciferase activity relative to the pCMV6 control cells (cells transfected with ALPL) [3] [fold] | luciferase activity, fold change relative to pCMV6 transfected HEK 293T cells (ALPL transfected cells) [4] [fold] | fold change in viral gene expression (2^-ΔΔCT) relative to pCMV6 transfected cells [5] [fold] | fold change in luciferase activity relative to the pCMV6 control cells (cells transfected with murine ALPL protein) [6] [fold] | fold change in luciferase activity relative to the pCMV6 control cells (cells transfected with human ALPL protein) [7] [fold] |
| --- | --- | --- | --- | --- | --- | --- | --- | --- | --- |
| COc1ccc(Cl)cc1S(=O)(=O)Nc1cncc(C(N)=O)c1 [SBI-425, 5-((5-chloro-2-methoxyphenyl)sulfonamido) nicotinamide] | 0.34 | significantly inhibited TTM-002 transduction |  |  |  |  |  |  |  |
| B1 |  |  | 3.16 | 2 | 22 | 35 | 6.64 | 18 | 22 |
